Experiments:
[1] = target: the molecule itself; test: SEC
[2] = target: the molecule itself; test: crystal structure

B1: GB1_HP0315 (HP0315, a VapD protein from Helicobacter pylori, fused with the immunoglobulin-binding domain of streptococcal protein G) (natural protein, Helicobacter pylori 26695)
chain: MYALAFDLKIEILKKEYGEPYNKAYDDLRQELELLGFEWTQGSVYVNYSKENTLAQVYKAINKLSQIEWFKKSVRDIRAFKVEDFSDFTEIVKS
[1]
  stoichiometry N: 2

B2: SeMet-substituted GB1_HP0315 (natural protein, Helicobacter pylori 26695)
chain: B1 chain
modifications: selenomethionine in place of methionine (first methionine residue of GB1 and the methionine residue of HP0315)
[2]
  binding result: binds

Source: paper PMC3351183 (Nucleic Acids Research, 2012)
